Experimental data published in patent US20250339569A1 (3B PHARMACEUTICALS, published 2025).
Blank lines part the entries; values can stand above or below the binder they belong to. Starred links: 1 amine or outer side, 2 acyl side, 3 side chain; linkers in the order of their positions; H or OH if unused. Positions of bridges follow the written chain, without caps; N, C: chain ends. Non-standard residues stand in square brackets, D forms with d. Primed or numbered codes have the meaning given here. *: point of attachment. Aph(2Ta5Sa) = 4-aminophenylalanine, ring amine acylated with 5-sulfamoylthiophene-2-carboxylic acid, NS(=O)(=O)c1ccc(C(=O)Nc2ccc(C[C@H](N[*:1])C(=O)[*:2])cc2)s1; Aph(3Ta5Sa) = 4-aminophenylalanine, ring amine acylated with 5-sulfamoylthiophene-3-carboxylic acid, NS(=O)(=O)c1cc(C(=O)Nc2ccc(C[C@H](N[*:1])C(=O)[*:2])cc2)cs1; Af3(3MSaBz) = 3-aminophenylalanine, ring amine acylated with 3-(sulfamoylmethyl)benzoic acid, NS(=O)(=O)Cc1cccc(C(=O)Nc2cccc(C[C@H](N[*:1])C(=O)[*:2])c2)c1; Af3(HO-Glutar) = 3-aminophenylalanine acylated on the ring amine with glutaric acid (free COOH), O=C(CCCC(=O)[*:3])Nc1cccc(C[C@H](N[*:1])C(=O)[*:2])c1; Af3(4SaBz) = 3-aminophenylalanine, ring amine acylated with 4-sulfamoylbenzoic acid, NS(=O)(=O)c1ccc(C(=O)Nc2cccc(C[C@H](N[*:1])C(=O)[*:2])c2)cc1; Aph(SaPr)(4) = 4-aminophenylalanine, ring amine acylated with 3-sulfamoylpropanoic acid, NS(=O)(=O)CCC(=O)Nc1ccc(C[C@H](N[*:1])C(=O)[*:2])cc1; Af3(HO-Succinyl)″ = 3-aminophenylalanine, ring amine acylated with succinic acid, O=C(CCC(=O)[*:3])Nc1cccc(C[C@H](N[*:1])C(=O)[*:2])c1; Af3(H-pGlu) = 3-aminophenylalanine with L-pyroglutamyl on the ring amine, O=C1CC[C@@H](C(=O)Nc2cccc(C[C@H](N[*:1])C(=O)[*:2])c2)N1; Af3(Im5) = 3-aminophenylalanine with 1H-imidazole-5-carbonyl on the ring amine, O=C(Nc1cccc(C[C@H](N[*:1])C(=O)[*:2])c1)c1cnc[nH]1; Af3(Oa5) = 3-aminophenylalanine with 1,3-oxazole-5-carbonyl on the ring amine, O=C(Nc1cccc(C[C@H](N[*:1])C(=O)[*:2])c1)c1cnco1; Af3(H2N-Succinyl) = 3-aminophenylalanine with succinamoyl on the ring amine, NC(=O)CCC(=O)Nc1cccc(C[C@H](N[*:1])C(=O)[*:2])c1; Aph(Cp) = 4-aminophenylalanine with cyclopentanecarbonyl on the ring amine, O=C(Nc1ccc(C[C@H](N[*:1])C(=O)[*:2])cc1)C1CCCC1; DOTA(In) = O=C1CN2CCN3CCN(CC(=O)*)CCN(CC2)CC(=O)[O][In]([O]1)[O]C(=O)C3; Phe(3-NHCO(CH2)3SO2NH2) = N[C@@H](Cc1cccc(NC(=O)CCCS(N)(=O)=O)c1)C(=O)O; APAc″ = 2-(4-(amino)piperidin-1-yl)acetic acid, NC1CCN(CC(=O)*)CC1; DOTA = O=C(O)CN1CCN(CC(=O)O)CCN(CC(=O)*)CCN(CC(=O)O)CC1; NGly(3-aminopropyl) = O=C(CN(CCCN[*:3])[*:1])[*:2]; Phe(4-tBu) = CC(C)(C)c1ccc(C[C@H](N)C(=O)O)cc1; Pyridine(2,6-diCH2) = c1cc(C[*:1])nc(C[*:2])c1; mXylylene = c1cc(C[*:1])cc(C[*:2])c1; Orn(Me2) = CN(C)CCC[C@H](N)C(=O)O; αMeL = CC(C)C[C@](C)(N)C(=O)O; AGLU′ = not defined here; Ac6c = NC1(C(=O)O)CCCCC1; Orn = NCCC[C@H](N)C(=O)O; APAc = not defined here; Dab = NCC[C@H](N)C(=O)O; Dap = NC[C@H](N)C(=O)O; Bn = c1ccc(C*)cc1

Columns and labels:
[1] = molecular target: human carbonic anhydrase 9 (CAIX) (human, UniProt Q16790 38-459); assay: FACS competition on HT-29 cells, competitor tracer 3BP-2776; category B = pIC50 7.1-8.0
Experimental: (§1) CAIX-expressing human HT-29 colorectal cancer cells (DSMZ, RRID: CVCL_0320) were cultured in McCoys's 5A modified medium (Biochrom, #F1015) including 10% fetal calf serum (FCS), 2 mM L-glutamine, 100 U/ml penicillin and 100 μg/mL streptomycin. Cells were detached with Accutase (Biolegend, #423201) and washed in FACS buffer (PBS including 1% FCS). Cells were diluted in FACS buffer to a final concentration of 500.000 cells per ml. 200 μL of the cell suspension were transferred to a u-shaped non-binding 96-well plate (Greiner) and cells were washed in ice-cold FACS buffer.
(§2) When biotinylated compounds were used an additional incubation step with 1 μg/mL APC-Streptavidin (Miltenyi; #130-106-791) in 50 μL FACS buffer for 30 minutes on ice was performed.
(§3) Cells were washed twice with ice-cold FACS buffer and analyzed in an Attune NxT flow cytometer (Thermo Fisher). Median fluorescence intensities (MFI) of the APC/Cy5-channel were calculated by Attune NxT software.

[2] = molecular target: T1, Fc-fusion protein of human carbonic anhydrase IX (human, UniProt Q16790 38-414); assay: SPR, captured hCAIX-Fc; pKD category A: >8.0
[3] = molecular target: T1, Fc-fusion protein of human carbonic …; assay: SPR, captured hCAIX-Fc; t1/2 category A: >15.0 min
Experimental: Stock solutions of test compounds were prepared by dissolving each compound in DMSO. DMSO stock solution were diluted 1:1000 in Running Buffer without DMSO. […] SPR binding analyses were performed in Single Cycle Kinetic (SCK) mode at 25° C.
For each test compound, SPR raw data in the form of resonance units (RU) were plotted as sensorgrams using the Biacore™ T200 control software. The signal from the blank sensorgram was subtracted from that of the test compound sensorgram (blank corrected). The blank corrected sensorgram was corrected for baseline drift by subtracting the sensorgram of a SCK run without the test compound (running buffer only). […] Raw data and fit results were imported as text files in IDBS. The pKD value (negative decadic logarithm of dissociation constant) was calculated in the IDBS excel template.

[4] = molecular target: human carbonic anhydrase IX (CAIX) (human, UniProt Q16790 38-459); assay: FACS competition, HT-29 cells, tracer 3BP-4149; pIC50 category A: >8.0
Experimental: as §1, §2, §3

pIC50 [1]: 7.1 to 8 pic50
B1: 3BP-4046 (peptide)
peptide: Ac-VYCE[dP]KWLDWSC-NH2
modifications: linker 3-12 via mXylylene; lactam 6-9
SMILES: CC(=O)N[C@H](C(=O)N[C@@H](Cc1ccc(O)cc1)C(=O)N[C@H]1CSCc2cccc(c2)CSC[C@@H](C(N)=O)NC(=O)[C@H](CO)NC(=O)[C@H](Cc2c[nH]c3ccccc23)NC(=O)[C@@H]2CC(=O)NCCCC[C@H](NC(=O)[C@H]3CCCN3C(=O)[C@H](CCC(=O)O)NC1=O)C(=O)N[C@@H](Cc1c[nH]c3ccccc13)C(=O)N[C@@H](CC(C)C)C(=O)N2)C(C)C

pIC50 [1]: 7.1 to 8 pic50
Binder: {DOTA-APAc}-VYCE[dP]DY(Bn)LTWSC-NH2 (linker 3-12 via mXylylene; not fully specified; reading uncertain) [3BP-4137]

pIC50 [1]: 7.1 to 8 pic50
Binder: {DOTA-APAc}-VYCE[dK]SWLEWSC-NH2 (linker 3-12 via mXylylene; lactam 5-9; reading uncertain) [3BP-4115]

pIC50 [1]: 7.1 to 8 pic50
Binder: {DOTA-APAc}-VYCE[dP]E(AGLU′)WLTWSC-NH2 (linker 3-12 via mXylylene; reading uncertain) [3BP-4120]

pIC50 [1]: 7.1 to 8 pic50
B2: 3BP-4052 (peptide)
peptide: {DOTA(In)-APAc}-VYCE[dP]KWLEWSC-NH2
modifications: linker 3-12 via mXylylene; lactam 6-9; reading uncertain; also: indium complexed by DOTA

pKD [2]: > 8 pkd | t1/2 (half-life of the complex, SPR) [3]: > 15 min | pIC50 [4]: > 8 pic50
Binder: {DOTA-APAc}-VDCE[dP]D[Af3(HO-Succinyl)″]LTW[Dap]C-NH2 (lactam 2-11; linker 3-12 via mXylylene; reading uncertain) [3BP-4377]

pKD [2]: > 8 pkd | t1/2 (half-life of the complex, SPR) [3]: > 15 min | pIC50 [4]: > 8 pic50
Binder: {DOTA-APAc}-VYCE[dP]D[Af3(4SaBz)]LTWSC-NH2 (linker 3-12 via mXylylene; reading uncertain) [3BP-4405]

pIC50 [1]: 7.1 to 8 pic50
Binder: {DOTA-APAc}-VYCE[dP]DW[αMeL]TWSC-NH2 (linker 3-12 via mXylylene; reading uncertain) [3BP-4106]

pKD [2]: > 8 pkd | t1/2 (half-life of the complex, SPR) [3]: > 15 min | pIC50 [4]: > 8 pic50
Binder: {DOTA-APAc″}-VYCE[dP]D[Af3(HO-Glutar)]LTWSC-NH2 (linker 3-12 via mXylylene) [3BP-4367]

pIC50 [1]: 7.1 to 8 pic50
Binder: {DOTA-APAc″}-VYCE[dP]D[Af3(Im5)]LTWSC-NH2 (linker 3-12 via mXylylene) [3BP-4240]

pIC50 [1]: 7.1 to 8 pic50
B3: 3BP-3958 (peptide)
peptide: Ac-VYCE[dP][Orn]WLEWSC-NH2
modifications: linker 3-12 via mXylylene; lactam 6-9
SMILES: CC(=O)N[C@H](C(=O)N[C@@H](Cc1ccc(O)cc1)C(=O)N[C@H]1CSCc2cccc(c2)CSC[C@@H](C(N)=O)NC(=O)[C@H](CO)NC(=O)[C@H](Cc2c[nH]c3ccccc23)NC(=O)[C@@H]2CCC(=O)NCCC[C@H](NC(=O)[C@H]3CCCN3C(=O)[C@H](CCC(=O)O)NC1=O)C(=O)N[C@@H](Cc1c[nH]c3ccccc13)C(=O)N[C@@H](CC(C)C)C(=O)N2)C(C)C

pIC50 [1]: 7.1 to 8 pic50
Binder: {DOTA-APAc″}-VYCEG[NGly(3-aminopropyl)]WLEWSC-NH2 (linker 3-12 via mXylylene; lactam 6-9) [3BP-4252]

pIC50 [1]: 7.1 to 8 pic50
Binder: {DOTA-APAc}-VYCE[dP][Orn(Me2)]WLTWSC-NH2 (linker 3-12 via mXylylene; reading uncertain) [3BP-4098]

pKD [2]: > 8 pkd | t1/2 (half-life of the complex, SPR) [3]: > 15 min | pIC50 [4]: > 8 pic50
Binder: {DOTA-APAc}-VYCE[dP]D[Phe(3-NHCO(CH2)3SO2NH2)]LTWSC-NH2 (linker 3-12 via mXylylene; reading uncertain) [3BP-4369]

pIC50 [1]: 7.1 to 8 pic50
B4: 3BP-3961 (peptide)
peptide: Ac-VYCE[dP]KW[Ac6c]EWSC-NH2
modifications: linker 3-12 via mXylylene; lactam 6-9
SMILES: CC(=O)N[C@H](C(=O)N[C@@H](Cc1ccc(O)cc1)C(=O)N[C@H]1CSCc2cccc(c2)CSC[C@@H](C(N)=O)NC(=O)[C@H](CO)NC(=O)[C@H](Cc2c[nH]c3ccccc23)NC(=O)[C@@H]2CCC(=O)NCCCC[C@H](NC(=O)[C@H]3CCCN3C(=O)[C@H](CCC(=O)O)NC1=O)C(=O)N[C@@H](Cc1c[nH]c3ccccc13)C(=O)NC1(CCCCC1)C(=O)N2)C(C)C

pIC50 [1]: 7.1 to 8 pic50
Binder: {DOTA-APAc″}-VYCE[dP]DWLTWSC-NH2 (linker 3-12 via Pyridine(2,6-diCH2)) [3BP-4140]

pIC50 [1]: 7.1 to 8 pic50
Binder: {DOTA(In)}-YCE[dP]KWLEWSC-NH2 (linker 2-11 via mXylylene; lactam 5-8; also: indium complexed by DOTA) [3BP-4053]

pIC50 [1]: 7.1 to 8 pic50
Binder: {DOTA-APAc″}-VYCE[dP]D[Af3(Oa5)]LTWSC-NH2 (linker 3-12 via mXylylene) [3BP-4239]

pKD [2]: > 8 pkd | t1/2 (half-life of the complex, SPR) [3]: > 15 min | pIC50 [4]: > 8 pic50
Binder: {DOTA-APAc}-VYCE[dP]D[Af3(3MSaBz)]LTWSC-NH2 (linker 3-12 via mXylylene; reading uncertain) [3BP-4406]

pKD [2]: > 8 pkd | t1/2 (half-life of the complex, SPR) [3]: > 15 min | pIC50 [4]: > 8 pic50
Binder: {DOTA-APAc}-VYCE[dP]D[Aph(3Ta5Sa)]LTWSC-NH2 (linker 3-12 via mXylylene; reading uncertain) [3BP-4401]

pKD [2]: > 8 pkd | t1/2 (half-life of the complex, SPR) [3]: > 15 min | pIC50 [4]: > 8 pic50
Binder: {DOTA-APAc}-VYCE[dP]D[Aph(SaPr)(4)]LTWSC-NH2 (linker 3-12 via mXylylene; reading uncertain) [3BP-4400]

pIC50 [1]: 7.1 to 8 pic50
B5: 3BP-3960 (peptide)
peptide: Ac-VYCE[dP][Dab]WLEWSC-NH2
modifications: linker 3-12 via mXylylene; lactam 6-9
SMILES: CC(=O)N[C@H](C(=O)N[C@@H](Cc1ccc(O)cc1)C(=O)N[C@H]1CSCc2cccc(c2)CSC[C@@H](C(N)=O)NC(=O)[C@H](CO)NC(=O)[C@H](Cc2c[nH]c3ccccc23)NC(=O)[C@@H]2CCC(=O)NCC[C@H](NC(=O)[C@H]3CCCN3C(=O)[C@H](CCC(=O)O)NC1=O)C(=O)N[C@@H](Cc1c[nH]c3ccccc13)C(=O)N[C@@H](CC(C)C)C(=O)N2)C(C)C

pKD [2]: > 8 pkd | t1/2 (half-life of the complex, SPR) [3]: > 15 min | pIC50 [4]: > 8 pic50
Binder: {DOTA-APAc}-VYCE[dP]D[Aph(2Ta5Sa)]LTWSC-NH2 (linker 3-12 via mXylylene; reading uncertain) [3BP-4402]

pIC50 [1]: 7.1 to 8 pic50
Binder: {DOTA-APAc″}-VYCE[dP]D[Phe(4-tBu)]LTWSC-NH2 (linker 3-12 via mXylylene) [3BP-4160]

pIC50 [1]: 7.1 to 8 pic50
Binder: {DOTA-APAc″}-VYCE[dP]D[Af3(H-pGlu)]LTWSC-NH2 (linker 3-12 via mXylylene) [3BP-4241]

pIC50 [1]: 7.1 to 8 pic50
Binder: {DOTA-APAc″}-VYCE[dP]D[Aph(Cp)]LTWSC-NH2 (linker 3-12 via mXylylene) [3BP-4173]

pIC50 [1]: 7.1 to 8 pic50
Binder: {DOTA-APAc″}-VYCE[dP]D[Af3(H2N-Succinyl)]LTWSC-NH2 (linker 3-12 via mXylylene) [3BP-4238]
